The values that follow come from article PMC6151396, “Production of Single-Chain Fv Antibodies Specific for GA-Pyridine, an Advanced Glycation End-Product (AGE), with Reduced Inter-Domain Motion” (Molecules : A Journal of Synthetic Chemistry and Natural …, 2017).

Assay [1] has as its target T1, glycolaldehyde (GA)-modified bovine serum albumin (Bos taurus, UniProt P02769, modified by glycolaldehyde (GA-pyridine forms on the ε-amino group of Lys residues); sites not given).
T1 construct: bovine serum albumin; The scFvs are directed against GA-pyridine, a modified lysine; also called GA-BSA; source: BSA (25 mg/mL) incubated with 50 mM glycolaldehyde at 37 °C for 12 h, dialysed with PBS
As to the kind of experiment: ELISA; phage ELISA: GA-BSA coated on a 96-well plate, scFv display phage clones added for 1 h at 25 °C, detected with HRP-conjugated anti-M13 antibody. To be noted: one partner purified. On the technique in general: In an ELISA, binding on a coated surface is turned into a signal by an enzyme label.

The target in assay [2] is T2, glyceraldehyde-modified BSA (Bos taurus, UniProt P02769, modified by glyceraldehyde; sites not given).
T2 construct: bovine serum albumin; also called GCA-BSA
The experiment in a line: ELISA; competitive ELISA of purified AGE73scFv with AGE-modified BSAs as competitors; coated antigen and conditions not told in the text shown (Figure S2). Conditions: both partners purified.

For assay [3], the target named is T1, glycolaldehyde (GA)-modified bovine …. The description is as above. Conditions: both partners purified.
Assay [4] addresses T3, glucose-derived AGE-modified BSA (Bos taurus, UniProt P02769, glucose-derived AGE modification; sites not given).
T3 construct: bovine serum albumin; also called Glc-BSA
The description is as above. To be noted: both partners purified.

Where a chain is given by its changes, count along the chain named. Names and notes keep the numbering of the source.

T1 sequence (P02769 25-607): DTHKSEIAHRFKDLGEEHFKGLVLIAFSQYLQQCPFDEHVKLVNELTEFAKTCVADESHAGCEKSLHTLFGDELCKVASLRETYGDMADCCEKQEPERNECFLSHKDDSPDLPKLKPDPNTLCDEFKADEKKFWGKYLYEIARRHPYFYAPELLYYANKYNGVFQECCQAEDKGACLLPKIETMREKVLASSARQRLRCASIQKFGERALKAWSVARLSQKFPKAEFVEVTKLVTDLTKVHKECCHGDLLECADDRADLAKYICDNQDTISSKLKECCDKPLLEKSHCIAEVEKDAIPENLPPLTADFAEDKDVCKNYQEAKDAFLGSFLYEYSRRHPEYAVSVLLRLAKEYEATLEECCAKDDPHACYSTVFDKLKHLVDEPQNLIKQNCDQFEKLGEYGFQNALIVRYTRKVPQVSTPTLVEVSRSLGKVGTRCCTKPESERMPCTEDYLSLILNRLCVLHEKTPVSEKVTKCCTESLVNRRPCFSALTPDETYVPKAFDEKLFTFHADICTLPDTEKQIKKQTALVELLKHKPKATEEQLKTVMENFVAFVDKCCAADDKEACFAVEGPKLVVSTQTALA
T2 sequence (P02769 25-607): as above
T3 sequence (P02769 25-607): as above

B1: AGE73scFv displayed on phage (scFv, V domains shown)
VH: QVKLQQSGPSLVKPSQTLSLTCSVTGDSITSGYWNWIRKFPGNKFEYLGYISYSGRTYYNPSLKSRISITRDTSKNQYYLQLNSVTTEDTATYYCSRPYYRYDYAIDYWGQGTTVTVSS
VL: DIELTQSPAIMSASLGERVTMTCTASSSVSSSYLHWYQQKPGSSPKLWIYSTSNLASGVPARFSSSGSGTSYSLTISRMEAEDAATYYCQQSRKVPYTFGGGTKLEIK
notes: VH of AGE73scFv; as the VH of m1; (Gly-Gly-Gly-Gly-Ser)3 linker; VL of AGE73scFv; as the VL of m1
With B1, in assay [1], the binding result is listed as “binds”.

B2: 73MuL-S56P displayed on phage (scFv, V domains shown)
VH: B1 VH
VL: B1 VL with S57P
notes: as the VH of m1 (AGE73scFv); (Gly-Gly-Gly-Gly-Ser)3 linker; as the VL of m1 (AGE73scFv); probably Kabat; source: second library, error-prone PCR of the VL of AGE73scFv
For the molecule B2, the binding result in assay [1] is recorded as “binds”.

B3: AGE78scFv displayed on phage (scFv, V domains shown)
VH: B1 VH with Q6E, Q81H, S96T, Y100H, Y108F
VL: DIELTQSPAIMSASPGEKVTMTCSASSSVSYMHWYQQKPGFSPKLLIYRTSNLASGVPARFSGSGSGTSYSLTIGTMEAEDVATYYCQQGSSIPYTFGGGTKLEIK
notes: VH of AGE78scFv; (Gly-Gly-Gly-Gly-Ser)3 linker; VL of AGE78scFv
Regarding B3, the binding result in assay [1] is listed as “binds”.

B4: 73MuL-V94A displayed on phage (scFv, V domains shown)
VH: B1 VH
VL: B1 VL with V95A
notes: as the VH of m1 (AGE73scFv); (Gly-Gly-Gly-Gly-Ser)3 linker; as the VL of m1 (AGE73scFv) with V94A; probably Kabat; source: second library, error-prone PCR of the VL of AGE73scFv
In the case of B4, the binding result in assay [1] was “binds”.

B5: 73MuL-S30P displayed on phage (scFv, V domains shown)
VH: B1 VH
VL: B1 VL with S31P
notes: as the VH of m1 (AGE73scFv); (Gly-Gly-Gly-Gly-Ser)3 linker; as the VL of m1 (AGE73scFv); source: second library, error-prone PCR of the VL of AGE73scFv
On to B5, for which the binding result in assay [1] is listed as “binds”.

B6: AGE73scFv (scFv, V domains shown)
VH: B1 VH
VL: B1 VL
notes: VH of AGE73scFv, from the GA-KLH immunised mouse antibody library; (Gly-Gly-Gly-Gly-Ser)3 linker; VL of AGE73scFv, from the GA-KLH immunised mouse antibody library; the FLAG-tag lies on the N-terminal side of the hexahistidine-tag, so both are probably C-terminal of the scFv; also called anti-GA-pyridine scFv
For B6, the binding result in assay [2], in assay [3] and in assay [4] was “binds” throughout.

B7: AGE112scFv displayed on phage (scFv, V domains shown)
VH: B1 VH with Q6E
VL: DIELTQSPTTMAASPGEKITITCSASSSISSNYLHWYQQKPGFSPKLLIYSTSNLASGVPARFSGSGSGTSYSLTISSMEAEDAATYYCQQWSSNPYTFGGGTKLEIK
notes: VH of AGE112scFv; (Gly-Gly-Gly-Gly-Ser)3 linker; VL of AGE112scFv
For the molecule B7, the binding result in assay [1] is recorded as “binds”.
